The chains are these.
B1: extracellular domain of cynomolgus CD98hc (domain or fragment)
chain: ELPAQKWWHTGALYRIGDLQAFQGHGSGNLAGLKGRLDYLSSLKVKGLVLGPLHKNQKDDVAQTDLLQIDPNFGSKEDFDNLLQSAKKKSIRVILDLTPNYRGENLWFSTQVDSVATKVKDALEFWLQAGVDGFQVRDIENLKDASSFLAEWENITKGFSEDRLLIAGTNSSDLQQIVSLLESNKDLLLTSSYLSDSSFTGEHTKSLVTQYLNATGNRWCSWSLSQAGLLTSFLPAQLLRLYQLMLFTLPGTPVFSYGDEIGLKAAALPGQPVEAPVMLWDESSFPDIPGAVSANMTVKGQSEDPGSLLSLFRQLSDQRSKERSLLHGDFHTFSSGPGLFSYIRHWDQNERFLVVLNFGDVGLSAGLQASDLPASASLPTKADLVLSTQPGREEGSPLELERLKLEPHEGLLLRFPYVA
B2: extracellular domain of human CD98hc (domain or fragment)
chain: RAPRCRELPAQKWWHTGALYRIGDLQAFQGHGAGNLAGLKGRLDYLSSLKVKGLVLGPIHKNQKDDVAQTDLLQIDPNFGSKEDFDSLLQSAKKKSIRVILDLTPNYRGENSWFSTQVDTVATKVKDALEFWLQAGVDGFQVRDIENLKDASSFLAEWQNITKGFSEDRLLIAGTNSSDLQQILSLLESNKDLLLTSSYLSDSGSTGEHTKSLVTQYLNATGNRWCSWSLSQARLLTSFLPAQLLRLYQLMLFTLPGTPVFSYGDEIGLDAAALPGQPMEAPVMLWDESSFPDIPGAVSANMTVKGQSEDPGSLLSLFRRLSDQRSKERSLLHGDFHAFSAGPGLFSYIRHWDQNERFLVVLNFGDVGLSAGLQASDLPASASLPAKADLLLSTQPGREEGSPLELERLKLEPHEGLLLRFPYAA
B3: ATV^CD98hc.6.8:DNP (designed binder)
chain: DKTHTCPPCPAPELLGGPSVFLFPPKPKDTLMISRTPEVTCVVVDVSHEDPEVKFNWYVDGVEVHNAKTKPREEQYNSTYRVVSVLTVLHQDWLNGKEYKCKVSNKALPAPIEKTISKAKGQPREPQVYTLPPSRDELTKNQVSLTCLVKGFYPSDIAVLWNSRFVLENNYKTTPPVLDSDGSFFLYSKLTVDKSRWQQGEIFACNVYHEALHNHYTFKNLALSPGK
B4: TV6.6 as the ATV^CD98hc:DNP clone (designed binder)
chain: B3 chain with E201N

Targets include TV6.d6; TV6.38; ATV^CD98hc.6.39 (human, UniProt P01857 = IgG part); TV6.d12; TV6.d3; ATV^CD98hc.6.29:DNP (human, UniProt P01857 = IgG part).
What all share (test): SPR
(In general: SPR reads the build-up and loss of mass on a sensor chip optically.)

The target in assay [1] is B1.

Where a chain is given by its changes, count along the chain named.

For B1, the equilibrium dissociation constant (Kd) was 5 µM with TV6.d6; 0.25 µM with TV6.38; 0.485 µM with ATV^CD98hc.6.39; 6 µM with TV6.d12; 2.5 µM with TV6.d3.

Take B2: the Kd was found to be 0.55 µM with TV6.d6; 0.02 µM with ATV^CD98hc.6.29:DNP; 0.043 µM with TV6.38; 2.1 µM in the assay with TV6.d12; 0.275 µM with TV6.d3.

The molecule B3 showed a Kd in assay [1] of 0.89 µM.

Consider B4, for which, in assay [1], the equilibrium dissociation constant (Kd) turned out to be 2.1 µM.

As a reminder, the Kd is the constant that tells how readily two partners part at equilibrium. The low end stands for higher affinity, the high end for lower affinity.

Source of the values: PMC10439950 (2023).
